Results reported in paper PMC4175327.

Target: human beta2-microglobulin (hβ2m), monomer (human) (UniProt P61769)
Assay: SPR
Settings: 2'-fluoro C and U; 50 mM MES, 120 mM NaCl, pH 6.2; fluorescence and NMR at 25 °C (NMR plus 0.02% azide, 0.1 mM EDTA, 10% D2O); SPR temperature not stated

Sequence of human beta2-microglobulin (hβ2m), monomer (human) (P61769 21-119): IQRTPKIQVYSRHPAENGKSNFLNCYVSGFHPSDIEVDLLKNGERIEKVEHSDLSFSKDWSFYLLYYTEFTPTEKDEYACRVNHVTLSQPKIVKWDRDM

## GGGAAUGGAUCCACAUCUACGAAUUCUGAGCUACUCCCUUUUGGGCCCGGCUAUGAUUCACUGCAGACUUGACGAAGCUU [2'F B6 (full-length aptamer, 110 nt)]
  Kd: 500 nM
